Experiments:
[1] = target: T1, cyno CD123 ECD displayed on pDisplay-transfected cells (cynomolgus monkey); experiment: MSD-CAT on cyno pDisplay cells
T1 construct: ECD anchored on the surface of stably transfected HEK293 cells; also called cynoCD123 SP1 cells; cynoCD123 cells
T1 chain: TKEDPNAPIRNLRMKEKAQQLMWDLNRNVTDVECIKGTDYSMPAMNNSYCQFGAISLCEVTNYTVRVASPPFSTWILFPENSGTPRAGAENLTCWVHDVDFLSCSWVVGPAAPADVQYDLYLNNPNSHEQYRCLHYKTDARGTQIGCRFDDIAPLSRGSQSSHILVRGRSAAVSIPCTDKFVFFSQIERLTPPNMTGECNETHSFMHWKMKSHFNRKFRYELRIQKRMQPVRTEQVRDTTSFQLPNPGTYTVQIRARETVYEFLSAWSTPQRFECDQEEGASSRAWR
Method: Cell lines used were human pDisplay CD and cyno pDisplay CD123SP1. […] These samples were prepared in DMEM Glutamax medium containing 0.05% Azide, 1% BSA, 3 mM EDTA. The receptor numbers of (3.15-4.18)×10⁶ hCD123/cell and (4.78-9.24) 10⁶ cyCD123/cell were converted to M receptor concentration in the mixture on the basis of the volume of reaction, the cell density (cells/L) and the Avogadro's number. […] After equilibration the plate was centrifuged for 5 min ˜1000 rpm and free anti-CD3 detected on the supernatant. […] The assay buffer was removed without washing and 50 μL/well of 0.7 μg/mL of biotinylated antigen in assay buffer were added to MSD plates and incubated overnight (˜16 hr at 4° C.). After overnight incubation, the plates were blocked by adding 150 μL/well of assay buffer without removing coating antigen, incubated for ˜1 hr at ambient temperature and washed 5 times with wash buffer (assay buffer without BSA). 50 μL/well of the supernantants from samples plate were transferred to antigen-coated plates, incubated for 60 min, and then washed three times with wash Buffer. […] After 1 hr the plates were washed and 150 μL of MSD Read Buffer (prepared by diluting 1:4 of stock into d. H₂O) were added per well. The plates were read immediately on the MSD Sector Imager 6000 Reader for luminescence levels.

[2] = target: T1, cyno CD123 ECD displayed on …; experiment: MSD-CAT on pDisplay cells
Method: After equilibration the plate was centrifuged for 5 min ˜1000 rpm and free anti-CD3 detected on the supernatant. […] The assay buffer was removed without washing and 50 μL/well of 0.7 μg/mL of biotinylated antigen in assay buffer were added to MSD plates and incubated overnight (˜16 hr at 4° C.). After overnight incubation, the plates were blocked by adding 150 μL/well of assay buffer without removing coating antigen, incubated for ˜1 hr at ambient temperature and washed 5 times with wash buffer (assay buffer without BSA). 50 μL/well of the supernantants from samples plate were transferred to antigen-coated plates, incubated for 60 min, and then washed three times with wash Buffer. After this 50 μL per well of ruthenium labeled detection antibody(anti-human H+L) were added and incubated for 1 hr. After 1 hr the plates were washed and 150 μL of MSD Read Buffer (prepared by diluting 1:4 of stock into d. H₂O) were added per well. The plates were read immediately on the MSD Sector Imager 6000 Reader for luminescence levels. ECL signal detected by MSD was expressed in term of % free antibody in the mixture and the data was analyzed to determine affinity using a user defined equation (derived from the law of mass action) introduced in Prism software.

[3] = target: T2, Recombinant human CD123 SP1 ECD-His tag protein (human, UniProt P26951 20-305); experiment: SPR Biacore 3000, captured mAb
T2 construct: bought from R&D Systems (#301-R3/CF); biotinylated for some assays; also called rhCD123 SP1; huCD123 ECD SP1
T2 sequence: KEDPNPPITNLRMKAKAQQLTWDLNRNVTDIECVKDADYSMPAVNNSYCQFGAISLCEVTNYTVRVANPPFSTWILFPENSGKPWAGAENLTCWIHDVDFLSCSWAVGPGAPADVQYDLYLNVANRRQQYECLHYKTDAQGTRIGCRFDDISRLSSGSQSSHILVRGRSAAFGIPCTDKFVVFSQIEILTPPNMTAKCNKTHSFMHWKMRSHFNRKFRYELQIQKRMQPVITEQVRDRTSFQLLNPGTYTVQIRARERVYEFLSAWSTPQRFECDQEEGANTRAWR
Method: (§1) Kinetic studies were performed at 25° C. using a Biacore 3000 (BIAcore, Inc., now part of GE Healthcare). […] Sheep anti-Human Fd specific antibody (The binding site Prod # PC075) was covalently attached to two flow cells (normally 3 and 4) of the carboxymethyl dextran coated gold surfaces (CM-5 Chip, Biacore). The carboxymethyl groups of dextran were activated with N-Ethyl-N′-(3-Dimethylaminopropyl)carbodiimide (EDC) and N-hydroxysuccinimide (NHS). The antibodies were coupled at pH 4.5 in 10 mM sodium acetate. Any remaining reactive sites on the surface were blocked by reaction with ethanolamine. […] Association data was collected for 2 min followed by 10 min of dissociation. The surface was regenerated with 30 μL of 100 mM H3PO4 100 μL/min. All samples were prepared in D-PBS containing 3 mM EDTA and 0.005% surfactant P20. Data reported is the difference in SPR signal between the flow cell containing the captured antibody or Fab and a reference cell without captured antibody or Fab. Additional instrumental contributions to the signal were removed by subtraction of the data from the blank injection from the reference-subtracted signal. Data were performed in triplicate and analyzed by fitting association and dissociation phases at all concentrations (global fit) with a 1:1 binding model using the BIAevaluation software (BIAcore, Inc.). […] Data presented is an average.

[4] = target: T3, Recombinant human CD123 SP2 ECD protein (human, UniProt P26951 101-303); experiment: SPR Biacore 3000, captured mAb
T3 construct: also called rhCD123 SP2; CD123 ECD SP2
T3 sequence: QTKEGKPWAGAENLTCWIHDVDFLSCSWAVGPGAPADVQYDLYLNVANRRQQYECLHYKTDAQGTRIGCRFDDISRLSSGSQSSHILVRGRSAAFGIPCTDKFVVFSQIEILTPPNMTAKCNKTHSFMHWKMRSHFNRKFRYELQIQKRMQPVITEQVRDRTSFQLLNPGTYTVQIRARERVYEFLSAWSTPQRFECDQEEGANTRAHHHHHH
Method: as §1

- Kd [1]: > 12 nM
- fold weaker than to human CD123 SP1 [2]: > 10 fold
- Kd [3]: 1.2 nM
- koff [3]: 0.000808 s⁻¹
- kon [3]: 688000 M⁻¹ s⁻¹
- Kd [4]: 0.3 nM
B1: I3RB18 (antibody, IgG1, V domains shown)
VH: EVQLVQSGAEVKKPGESLKISCKGSGYSFTSYWISWVRQMPGKGLEWMGIIDPSDSDTRYSPSFQGQVTISADKSISTAYLQWSSLKASDTAMYYCARGDGSTDLDYWGQGTLVTVSS
VL: EIVLTQSPGTLSLSPGERATLSCRASQSVSSSYLAWYQQKPGQAPRLLIYGASSRATGIPDRFSGSGSGTDFTLTISRLEPEDFAVYYCQQDYGFPWTFGQGTKVEIK
notes: IgG1; also called 13RB18; mAb I3RB18
